From patent publication US7601687 come the findings set out here.

Assay [1] has as its target B type Insulin Receptor of HIT-T15 cells (endogenous) (hamster). The experiment in a line: cell-based or functional assay.
Assay [2] concerns the target B type Insulin Receptor of islet cells (endogenous) (rat or mouse (not stated for the experiment)). Kind of assay: cell-based or functional assay.

With insulin (ligand), the amount of exogenous insulin necessary to trigger βGK promoter activity (βGK promoter-driven GFP expression, HIT cells, FIG. 4B) in assay [1] came out at 20 µU per ml. The substance also gave a βGK mRNA levels in pancreatic islets (FIG. 4A) in assay [2] of 50 µU per ml.
